# Substitutions are numbered along the chain they refer to.
# B1: Anti-HLA-G antibody 1 (antibody, V domains shown)
# VH: EVQLLESGGGLVQPGGSLRLSCAASGFTFSDYAMSWVRQAPGKGLEWVSVISHDGDRVYYADSVKGRFTISRDNSKNTLYLQMNSLRAEDTAVYYCAKGPRRIANAIFDYWGQGTLVTVSS
# VL: QLVLTQPPSVSGAPGQKVTISCSGSSSNIGHSYVSWYQQLPGTAPKLLIYGDNNRPSGVPDRFSGSKSGTSASLAITGLQAEDEADYYCQSYDSSLSGYVFGTGTKVTVL
# B2: Anti-HLA-G antibody 2 (antibody, IgG1, V domains shown)
# VH: B1 VH with D56G, R57S, V58I
# VL: B1 VL with L2F, G12A, S26N, H31N, L40V, T43A, K46R, D52S, N53T
# B3: Anti-HLA-G antibody 3 (antibody, IgG1, V domains shown)
# VH: EVQLLESGGGLVQPGGSLRLSCAASGFTFSDYSMSWVRQAPGKGLEWVSAISPDRSLEYYADSVKGRFTISRDNSKNTLYLQMNSLRAEDTAVYYCAKGPRHLTNNIFDYWGQGTLVTVSS
# VL: QFVLTQPPSVSAAPGQKVTISCSGSSSNIGHSYVSWYQQLPGTAPKLLIYGNIHRPSGVPDRFSGSTSGTSASLAITGLQADDEADYYCGVWDSSLSAVVFGGGTKLTVL
# B4: Anti-HLA-G antibody 4 (antibody, IgG1, V domains shown)
# VH: B3 VH with R55S, S56G, L57S, E58K
# VL: QSVLTQPPSASGTPGQRVTISCTGSSSNIGSNYVSWYQQLPGTAPKLLIYADSNRPSGVPDRFSGSKSGTSASLAISGLRSEDEADYYCASWDYSLSGYVFGGGTKLTVL
# Target: T1, HLA-G monomer (signal peptide-b2m-HLA-G-6xHis antigen of Example 1, monomer fraction) (human)
# T1 construct: also called b2m-HLA-G antigen
# Test: SPR, HLA-G monomer
row,Binder,Kd [nM]
1,B1,15
2,B2,9.3
3,B3,28.1

# Target: T2, HLA-G antigen produced in Example 1 (signal peptide-b2m-HLA-G-6xHis; monomer or dimer not stated) (human)
# T2 construct: also called b2m-HLA-G antigen
# Test: Octet (BLI); form of the antigen not stated
row,Binder,Kd [nM]
1,B1,0.284
2,B2,0.549
3,B4,1.45
4,B3,1.06

# Target: T3, HLA-G dimer (signal peptide-b2m-HLA-G-6xHis antigen of Example 1, dimer fraction) (human)
# T3 construct: also called HLA-G multimers
# Test: SPR, HLA-G dimer
row,Binder,Kd [nM]
1,B1,1.11
2,B2,0.841
3,B4,4.88
4,B3,3.98

# Target: T2, HLA-G antigen produced in Example 1 …
# Test: ILT2 block ELISA: competitor ILT-2-Fc coated, antigen of Example 1 pre-mixed with antibody dilutions, anti-His-HRP detection
row,Binder,IC50 [nM]
1,B1,155
2,B2,146
3,B4,144
4,B3,164

# Target: T3, HLA-G dimer (signal …)
# Test: CD8a block ELISA: dimeric antigen coated, antibody 0.391 nM, competitor CD8a-His 100 nM, anti-CD8a-HRP detection
row,Binder,CD8a Block EIA (%)
1,B1,39.5
2,B2,39
3,B4,32.1
4,B3,37.7

# — patent US20250297013A1 (HK INNO N, published 2025)
